# Measurements as given in US20250152746A1, “BASE EDITING OF ANGPTL3 AND METHODS OF USING SAME FOR TREATMENT OF DISEASE” (Verve Therapeutics, Inc., priority 2020, published 2025).
# How the values were obtained:
# PCSK9 gene splice site [1] = type: cell-based, human; conditions: for editing activities, ranking of guides: ABE8.8 mRNA MA002
# Experimental: (§1) PCSK9 gRNAs were co-transfected with an equivalent amount of in vitro transcribed ABE8.8 mRNA MA002 (1:1 ratio by weight) into primary hepatocytes and processed as described in detailed methods. In one set of experiments, extracted genomic DNA was analyzed for base editing of the target splice site with next-generation sequencing of PCR amplicons generated around the target sites. Samples were prepared using the Nextera XT DNA library preparation kit (Illumina) according to the manufacturer's protocol. Briefly, two rounds of PCR were performed first to amplify the region of interest and second to add DNA sequences required for next generation sequencing and sample identification to the initial product. The final amplicon was sequenced on the Illumina MiSeq instrument according to the manufacturer's protocol.
# (§2) Similarly, three gRNAs (GA098, GA099, GA100) were synthesized matching the 5′-[…]-3′ (SEQ ID NO: 15) (GA091) human protospacer sequence, as well as four gRNAs (GA067/GA101, GA102, GA103, GA347) matching the 5′-[…]-3′ (SEQ ID NO: 14) (GA067) cynomolgus protospacer sequence, but with more extensive chemical modifications of various kinds (Table 1). GA066 and GA095 contain the same chemical composition and modification pattern, as do GA067 and GA101 with one another. […] Each of the gRNAs described in Table 8, with an equivalent amount of in vitro transcribed ABE8.8 mRNA MA002 (1:1 ratio by weight), were co-transfected into primary human hepatocytes and primary cynomolgus hepatocytes via MessengerMax reagent, using various dilutions to assess for editing activity at different concentrations of test article. Three days after transfection, genomic DNA was harvested from the hepatocytes, and then assessed for base editing of the target splice site with next-generation sequencing.
# Modifications and/or truncations to either the spacer or tracr portion of the gRNA was assessed by alteration of the GA066 spacer (5′-[…]-3′ (SEQ ID NO: 13)) (Table 12). […] Each of the gRNAs with an equivalent amount of in vitro transcribed ABE8.8 mRNA (1:1 ratio by weight) were co-transfected into primary human hepatocytes and primary cynomolgus hepatocytes and processed as described in detailed methods. […]
# PCSK9 gene splice site [2] = type: cell-based, cynomolgus monkey
# Experimental: as §1, §2
# Modifications and/or truncations to either the spacer or tracr portion of the gRNA was assessed by alteration of the GA066 spacer (5′-[…]-3′ (SEQ ID NO: 13)) (Table 12). […] Each of the gRNAs with an equivalent amount of in vitro transcribed ABE8.8 mRNA (1:1 ratio by weight) were co-transfected into primary human hepatocytes and primary cynomolgus hepatocytes and processed as described in detailed methods.
# Lipid nanoparticles containing ABE8.8 mRNA and a gRNA matching the human/cynomolgus 5′-[…]-3′ (SEQ ID NO: 13) sequence (GA066) that targets the splice donor at the 5′ end of PCSK9 intron 1 were formulated at a 1:1 ratio by weight. The LNPs were administered to primary human hepatocytes and primary cynomolgus hepatocytes, using various dilutions to assess for editing activity at different concentrations of test article. LNP containing Cas9 mRNA and a gRNA matching a protospacer sequence in another gene, ANGPTL3, as a positive control was used for these experiments.
# Plating, culturing, and transfection of primary hepatocytes. Primary human liver hepatocytes (PHH) and primary cynomolgus liver hepatocytes (PCH) from BioIVT were cultured per the manufacturer's protocol. Briefly, primary human hepatocytes and primary cyno hepatocytes were obtained as frozen aliquots from BioIVT.
# ANGPTL3 gene [3] = assay: ANGPTL3 gRNA/SpCas9 editing in primary human hepatocytes (Table 3); type: cell-based
# Procedure, shortened: (§3)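 ANGPTL3 gRNAs were co-transfected 1:1 by weight with SpCas9 mRNA via MessengerMAX into primary human or cynomolgus hepatocytes plated on collagen. Cells were kept 3 days at 37 °C. Target-site editing was quantified by amplicon next-generation sequencing analysed with CRISPResso2.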
# ANGPTL3 gene [4] = assay: ANGPTL3 gRNA/SpCas9 editing in primary cynomolgus hepatocytes (Table 3); type: cell-based, cynomolgus monkey
# Procedure, shortened: as §3
molecule,measurement,setting,value
"GA072: PCSK9 gRNA for ABE8.8 splice site editing, Human/Cyno (nucleic acid, 2'-O-methyl at 1, 2, other sugars, backbone and T or U not given here; further chemistry not fully specified, PCSK9 gRNA for ABE8.8 splice site editing, Human/Cyno) guide: GGTGGCTCACCAGCTCCAGCGTTTTAGAGCTAGAAATAGCAAGTTAAAATAAGGCTAGTCCGTTATCAACTTGAAAAAGTGGCACCGAGTCGGTGCTTTT",Human Primary Hepatocytes-splice site editing % 1250 ng/mL,PCSK9 gene splice site [1],1.5%
same,Human Primary Hepatocytes-splice site editing % 2500 ng/mL,PCSK9 gene splice site [1],2.2%
same,Human Primary Hepatocytes-splice site editing % 5000 ng/mL,PCSK9 gene splice site [1],2.5%
same,Cynomolgous Primary Hepatocytes-splice site editing % 1250 ng/mL,PCSK9 gene splice site [2],2.3%
same,Cynomolgous Primary Hepatocytes-splice site editing % 2500 ng/mL,PCSK9 gene splice site [2],1.7%
same,Cynomolgous Primary Hepatocytes-splice site editing % 5000 ng/mL,PCSK9 gene splice site [2],2.2%
"GA074: PCSK9 gRNA; protospacer TGCTTACCTGTCTGTGGAAG (SEQ ID NO: 68), splice donor of intron 4 (nucleic acid, listed as RNA; modified_base 1: mod_base = OTHER; note = 2'-O-Methyl-uridine phosphorothioate; modified_base 2: mod_base = OTHER; note = 2'-O-Methyl-guanosine phosphorothioate; modified_ba) guide: TGCTTACCTGTCTGTGGAAGGTTTTAGAGCTAGAAATAGCAAGTTAAAATAAGGCTAGTCCGTTATCAACTTGAAAAAGTGGCACCGAGTCGGTGCTTTT",Human Primary Hepatocytes-splice site editing % 1250 ng/mL,PCSK9 gene splice site [1],11.6%
same,Human Primary Hepatocytes-splice site editing % 2500 ng/mL,PCSK9 gene splice site [1],18.8%
same,Human Primary Hepatocytes-splice site editing % 5000 ng/mL,PCSK9 gene splice site [1],23.8%
same,"editing activities, ranking of guides",PCSK9 gene splice site [1],performing the best
same,Cynomolgous Primary Hepatocytes-splice site editing % 1250 ng/mL,PCSK9 gene splice site [2],17.5%
same,Cynomolgous Primary Hepatocytes-splice site editing % 2500 ng/mL,PCSK9 gene splice site [2],20.1%
same,Cynomolgous Primary Hepatocytes-splice site editing % 5000 ng/mL,PCSK9 gene splice site [2],18.7%
"GA073: PCSK9 gRNA; protospacer GCTTACCTGTCTGTGGAAGC (SEQ ID NO: 67), splice donor of intron 4 (nucleic acid, listed as RNA; modified_base 1: mod_base = OTHER; note = 2'-O-Methyl-guanosine phosphorothioate; modified_base 2: mod_base = OTHER; note = 2'-O-Methyl-cytidine phosphorothioate; modified_b) guide: GCTTACCTGTCTGTGGAAGCGTTTTAGAGCTAGAAATAGCAAGTTAAAATAAGGCTAGTCCGTTATCAACTTGAAAAAGTGGCACCGAGTCGGTGCTTTT",Human Primary Hepatocytes-splice site editing % 1250 ng/mL,PCSK9 gene splice site [1],11.2%
same,Human Primary Hepatocytes-splice site editing % 2500 ng/mL,PCSK9 gene splice site [1],17.5%
same,Human Primary Hepatocytes-splice site editing % 5000 ng/mL,PCSK9 gene splice site [1],25.4%
same,"editing activities, ranking of guides",PCSK9 gene splice site [1],performing the best
same,Cynomolgous Primary Hepatocytes-splice site editing % 1250 ng/mL,PCSK9 gene splice site [2],24.7%
same,Cynomolgous Primary Hepatocytes-splice site editing % 2500 ng/mL,PCSK9 gene splice site [2],23.2%
same,Cynomolgous Primary Hepatocytes-splice site editing % 5000 ng/mL,PCSK9 gene splice site [2],29.2%
"GA107: ANGPTL3 gRNA; protospacer AGCCAATGGCCTCCTTCAGT (SEQ ID NO: 105) (nucleic acid, 2'-O-methyl at 1, 2, other sugars and backbone not given here; further chemistry not fully specified) guide: AGCCAATGGCCTCCTTCAGTGTTTTAGAGCTAGAAATAGCAAGTTAAAATAAGGCTAGTCCGTTATCAACTTGAAAAAGTGGCACCGAGTCGGTGCTTTT",Human Primary Hepatocyte Editing % 100 ng/ml,ANGPTL3 gene [3],3.72%
same,Human Primary Hepatocyte Editing % 500 ng/mL,ANGPTL3 gene [3],5.09%
same,Cyno Primary Hepatocyte Editing % 100 ng/mL,ANGPTL3 gene [4],32.58%
"GA077: PCSK9 gRNA for ABE8.8 splice site editing, Human/Cyno (nucleic acid, 2'-O-methyl at 1, 2, other sugars and backbone not given here; further chemistry not fully specified, PCSK9 gRNA for ABE8.8 splice site editing, Human/Cyno) guide: UCCCAGGCCTGGAGTTTATTGTTTTAGAGCTAGAAATAGCAAGTTAAAATAAGGCTAGTCCGTTATCAACTTGAAAAAGTGGCACCGAGTCGGTGCTTTT",Human Primary Hepatocytes-splice site editing % 1250 ng/mL,PCSK9 gene splice site [1],2.8%
same,Human Primary Hepatocytes-splice site editing % 2500 ng/mL,PCSK9 gene splice site [1],5.7%
same,Human Primary Hepatocytes-splice site editing % 5000 ng/mL,PCSK9 gene splice site [1],6.0%
same,Cynomolgous Primary Hepatocytes-splice site editing % 1250 ng/mL,PCSK9 gene splice site [2],4.1%
same,Cynomolgous Primary Hepatocytes-splice site editing % 2500 ng/mL,PCSK9 gene splice site [2],5.7%
same,Cynomolgous Primary Hepatocytes-splice site editing % 5000 ng/mL,PCSK9 gene splice site [2],5.4%
